Data: a protein production outcome set (Wang et al. 2014)

Experiment: label from the status in PepcDB records

Sequence | protein production
MVSTIIISFFIIIIAVVILVLVATRSKSPSSGGRKKVKGRAVLMKEASRRLAQNPHDIEGLFIMGDIYYQDQDWEKAYTAYSALLDRMKPLEMNKQLDVAIRYGICALKTNRLPEAKKGFLLAETINPKNLDVSYNLGYIYYLEKDYEKAVKFFKRTLILEPNSFLATKYLGYTLQHLHKYTEALPALKKALDFKPDDKEVLFAMGECFYETEATDRCLKILNHLRVDPVFGPQASLYTGMIRAKADQLERAIEDFQIGLKHTGIPMDISNELKYRLAQAYIKTQEIGQALHLLKEIQSISPGYKDAATLIMRYQELNKNKNLQIYLMSGQSEFVALCRKIVARFYPKAKVKIVDISVLAAYTDIVAEIDTSRFSDTVIFRFFRSQGTVGELLLRELHARLKEVKGGTGICMSAGTFTEEAVRFSEGRPLDLYDKTRLSNVLNSLK | failed
MVSVNLPWELVEEILCRVPPQSLVKFRTVCKQWNSLFDDNKFVNDHFVQSQPQLIFRTESKIYSVAVNFKGPRIEVHELPLAIPGLKSEMPIRLHDYVDCDGLLFCTSYFNGVLIWNPWLRQTRFFPSIHRYPVTYDIGYDNKKQYKMLDYYKCEGDSSIKSIIYEIGLYSKKVKDLESDSTWSIFQSNSVSLNGTLYWAGVDVNNGIFIRSFSFSTEKPRTFCSLPFMYDDDNVLALAVFRKDRLSLLNLCNKTSEIKIWLTKNNINDREVGLEEDVVWINLMTVLIPNFPKFSFYWYNRPDLTYFLDNDDAKRLVICCYDETDQAYIYIVKGDMFKKIKIDQYEVLSDYSRPHFHTYIPSLVRPSRVKEDNKN | failed
MVTIPIFLIIIGATMAVVVWSAKRTKSAADFYTAGGGITGTQNGWAIAGDYMSAASFLGISGMISLYGYDGFMYSVGWLVAYITVLLIVAEPCRNAGKYTLGDILSFRTEPKVVRAVCAISVVAVSTFYLTAQMVGAGKLMQLLLGIPYKFAIIGVGILMVGYVVFGGMTATTWVQIIKAGLLMTGAGLLSVLVGLKAGMNPFTFFNDIATNPNIIEHVQKAVLKDPVAVAGFDYGQRFLEPGLFLKNPLDQISLGMALVLGTAGMPHILMRFFTVPTAQAARKSVIVAMFIIGSFYILTTLLGFGAAIHVTPQGITAVDKGGNMAAMMLAQQLGGDISPFLGDLLLAFLCAVAFATILAVVSGLVLAASAAIAHDIYVNVIKDGHADQHEQVMAARITSLCVGAMGIIIGIAAEKQNVAHLVALAFAVASSGNLPVVVMSLFWRKFNTAGVVSGLVVGTVASIALVMVSPNMTYPKVVAADAQKVVTKLEEKQAGGAVLTEKEMKDLDKAKADYAKNKDGKSMLGLDKPLIKLKNPGIISIPLGFLAAIIGCLAFPSRRSEEMFDEIYVRQNTGIGMAKAIDH | failed
MVTSEGLASVDSWLYRQGFNVDSWLLSDTFSHDNDLLARALHTTVTAPHTLTPSSAFFDSSAVSHPSSTNTLSSTVSGASDPEIIGGGAKRKRNCLLTDGKAAKRRARASKKSQTTFITADPSNFRQMVQQVTGAKYIDDSSSFGIFDPIVKPEPLRFVNKLPCGPSDRSTAVPMLDTSAFLSNHHQENLAVGNAFSGNSSSVGLPSGKPSATADPGGSAVEFDNYPTFPTLESWKVM | failed
MVVAPYLAVAIGGSLGAMSRYLVTIMAQNAWGIKFPYGTLLVNTLGSFLAGFFLIVLVGRFSAEESFRLFLFTGFLGAFTTFSSFAAESLFMFEQGYWFKLMTNILVNNVGSLSMVFIGTLVAKYVLLGHQGSN | failed
MVVKMIEKYVEFIGEHELDAIFKIAEKIKDLSILHVNSTKAGGGVAEILNRMLPLMKELGLNVDWKVIKGDNEFFNVTKSFHNSLQNGTGNIPDEYFKIYDKWQEINLSEIPLDYDIMFIHDPQPAGLIKFKKGNSNKWIWRCHIDISNPYPPVWNFLRKYISKYDSMIISVPSFGRDDIEIPQFVIPPSIDPLSIKNRDMSETTILRILYKFGINLEKPLITQVSRFDYAKDPLGVIQAYKLAKRHVDIQLLYVGSPATDDPEGEKVYSEVVKASEGDKDIHLLMLPPYSDLEINVFQTASTVVMQKSIKEGFGLTVSEAMWKRKPVIGGNTGGIPLQVINGITGFLVNSPQGASHYIIYLIRNEEIRRRLGTNAREHIRRNFLITRELRDYLMTIVYVANRGLASLNSHESISNHLEHHHHHH | failed
MVVMIKLRDELGTATTDSAQKILLLGSGELGKEIAIEAQRLGVEVVAVDRYANAPAMQVAHRSYVGNMMDKDFLWSVVEREKPDAIIPEIEAINLDALFEFEKDGYFVVPNARATWIAMHRERLRETLVKEAKVPTSRYMYATTLDELYEACEKIGYPCHTKAIMSSSGKGSYFVKGPEDIPKAWEEAKTKARGSAEKIIVEEHIDFDVEVTELAVRHFDENGEIVTTFPKPVGHYQIDGDYHASWQPAEISEKAEREVYRIAKRITDVLGGLGIFGVEMFVKGDKVWANEVSPRPHDTGMVTLASHPPGFSEFALHLRAVLGLPIPGEWVDGYRLFPMLIPAATHVIKAKVSGYSPRFRGLVKALSVPNATVRLFGKPEAYVGRRLGIALAWDKDVEVAKRKAEMVAHMIELRTRSSDWHDQNYEKRKHLLR | not failed
MVVMSKVLLNIGCADVDKPGYINVDARKTKVTHLVSNAWDLDCFEENSVHEIYSRHMLEHLNPEYAKLALQKWFYILEPEGKLVVIVPDIEFHARQLLGVSRSSFGDQMEHAFAGFWGWREKERGGSDFDAHQWGYTVATLENEIGAVGFERIERVVEGVDSEPWHLQMTARKPMTSLCCPMDFRGPFPLEHHHHHH | not failed
MVVNESMYQLGSVRSAIRELFEYGKKRAAIVGKENVYDFSIGNPSIPAPQIVNDTIKELVTDYDSVALHGYTSAQGDVETRAAIAEFLNNTHGTHFNADNLYMTMGAAASLSICFRALTSDAYDEFITIAPYFPEYKVFVNAAGARLVEVPADTEHFQIDFDALEERINAHTRGVIINSPNNPSGTVYSEETIKKLSDLLEKKSKEIGRPIFIIADEPYREIVYDGIKVPFVTKYYDNTLVCYSYSKSLSLPGERIGYVLVPDEVYDKAELYAAVCGAGRALGYVCAPSLFQKMIVKCQGATGDINAYKENRDLLYEGLTRIGYHCFKPDGAFYMFVKALEDDSNAFCEKAKEEDVLIVAADGFGCPGWVRISYCVDREMIKHSMPAFEKIYKKYNK | not failed
MVVRTWRSMQERYNLIGSKCKTCGTVYFPARSVCPECRRKGELEDYKLNGKGKVYTYSVVYAAPKDFEKQSPYVIGIVELEEGTKITSQIDCEPEEVKIGMPVEATFRKIREDGCDGVISYGYKFVPTEQLEHHHHHH | failed
MVVSIGVFDGVHIGHQKVLRTMKEIAFFRKDDSLIYTISYPPEYFLPDFPGLLMTVESRVEMLSRYARTVVLDFFRIKDLTPEGFVERYLSGVSAVVVGRDFRFGKNASGNASFLRKKGVEVYEIEDVVVQGKRVSSSLIRNLVQEGRVEEIPAYLGRYFEIEGIVHKDREFGRKLGFPTANIDRGNEKLVDLKRGVYLVRVHLPDGKKKFGVMNVGFRPTVGDARNVKYEVYILDFEGDLYGQRLKLEVLKFMRDEKKFDSIEELKAAIDQDVKSARNMIDDIINSKFEKEG | not failed
MVWWWRALGPSGEGQPGPLPSSLFPVIDPSRPTMQDIECLGVYTSGGDAPGMNACLRAVVRTAIANDIAVMGIRRGYEGMIEADFVEMERRSVSNILQSGGTILKSARSEAFRTEEGRRAAANSLRENGIDALVAIGGDGTFRGASKLYDEHGLGVVGCPGTIDNDLYGTDQTIGYDTALNTAIDNIDRIRDTADAHNRLFLVEVMGRDAGFIALNSGIGGGAELILIPETITEMDMVKERILSLMTAQRRSTIVVVAEGDELGGAQGIERALRDDAAFSDIELRSTILGHTQRGGAPTASDRVLASRLGVAAVESLMDGHSDVMVGMTNNEIKLTPLRNVYGRRKSIDYDLLKLTQILS | failed
MVYRDDYFIRHSISVSAVIVRAWITHKYSGRDWNVKWEENLLHAVAKNYTLLQTIPPFERPFKDHQVCLEWNMGYIWNLRANRIPQCPLENDVVALLGFPYASSGENTGIVKKFPRFRNRELEATRRQRMDYPVFTVSLWLYLLHYCKANLCGILYFVDSNEMYGTPSVFLTEEGYLHIQMHLVKGEDLAVKTKFIIPLKEWFRLDISFNGGQIVVTTSIGQDLKSYHNQTISFREDFHYNDTAGYFIIGGSRYVAGIEGFFGPLKYYRLRSLHPAQIFNPLLEKQLAEQIKLYYERCAEVQEIVSVYASAAKHGGERQEACHLHNSYLDLQRRYGRPSMCRAFPWEKELKDKHPSLFQALLEMDLLTVPRNQNESVSEIGGKIFEKAVKRLSSIDGLHQISSIVPFLTDSSCCGYHKASYYLAVFYETGLNVPRDQLQGMLYSLVGGQGSERLSSMNLGYKHYQGIDNYPLDWELSYAYYSNIATKTPLDQHTLQGDQAYVETIRLKDDEILKVQTKEDGDVFMWLKHEATRGNAAAQQRLAQMLFWGQQGVAKNPEAAIEWYAKGALETEDPALIYDYAIVLFKGQGVKKNRRLALELMKKAASKGLHQAVNGLGWYYHKFKKNYAKAAKYWLKAEEMGNPDASYNLGVLHLDGIFPGVPGRNQTLAGEIFHKAAQGGHMEGTLWCSLYYITGNLETFPRDPEKAVVWAKHVAEKNGYLGHVIRKGLNAYLEGSWHEALLYYVLAAETGIEVSQTNLAHICEERPDLARRYLGVNCVWRYYNFSVFQIDAPSFAYLKMGDLYYYGHQNQSQDLELSVQMYAQAALDGDSQGFFNLALLIEEGTIIPHHILDFLEIDSTLHSNNISILQELYERCWSHSNEESFSPCSLAWLYLHLRLLWGAILHSALIYFLGTFLLSILIAWTVQYFQSVSASDPPPRPSQASPDTATSTASPAVTPAADASDQDQPTVTNNPEPRG | failed
MWESKFVKEGLTFDDVLLVPAKSDVLPREVSVKTVLSESLQLNIPLISAGMDTVTEADMAIAMARQGGLGIIHKNMSIEQQAEQVDKVKRSESGVISDPFFLTPEHQVYDAEHLMGKYRISGVPVVNNLDERKLVGIITNRDMRFIQDYSIKISDVMTKEQLITAPVGTTLSEAEKILQKYKIEKLPLVDNNGVLQGLITIKDIEKVIEFPNSAKDKQGRLLVGAAVGVTADAMTRIDALVKASVDAIVLDTAHGHSQGVIDKVKEVRAKYPSLNIIAGNVATAEATKALIEAGANVVKVGIGPGSICTTRVVAGVGVPQLTAVYDCATEARKHGIPVIADGGIKYSGDMVKALAAGAHVVMLGSMFAGVAESPGETEIYQGRQFKVYRGMGSVGAMEKGSKDRYFQEGNKKLVPEGIEGRVPYKGPLADTVHQLVGGLRAGMGYCGAQDLEFLRENAQFIRMSGAGLLESHPHHVQITKEAPNYSL | not failed
MWFQNYLLAKFMMNRKGLMANYRVWRRRWFYPLISVVVAVSLCLGTPLVGRAIDLRPLLLQGVQVLQLSNISDRQEVDLGNQMNQQLRSSEVKISRNAEITRYVDQIGQRLVANSDRPNLPFTFQVVENDAVNAFATLGGFVYIHTGLLKTADNEAELASVIAHEIGHIGGRHLVKQMRQRALASGLASATGLDRNTAVGLGVELALNRPRSRQDEFDADTRGLRTLTRAGYAPSAMVSFMQKLTKGGGSVPAFLSTHPATGDRITSLRRAINSQGSNGRDGLDNAAYRARIRSIL | failed
MWKAVMNAWNGTESQSKNVSNIQSYSFEDMKRIVGKHDPNVVLVDVREPSEYSIVHIPASINVPYRSHPDAFALDPLEFEKQIGIPKPDSAKELIFYCASGKRGGEAQKVASSHGYSNTSLYPGSMNDWVSHGGDKLDL | not failed
MWKTASDKGLGHLLRDVWSLLNEEERELLDKEIQPFPCKKASTVFSEGDIPNNLFYLYEGKIKILREGVYGRFHISRIVKPGQFFGMRPYFAEETCSSTAIAVENSKVLAIPVEAIEALLKGNTSFCRYFLKALAKELGYAERRTVTLTQKHVRGRLAETLLILKENFGFENDGATLSIYLSREELATLSNMTVSNAIRTLSTFVSERMLALDGKRIKIIDCDRLQKTARSG | not failed
MWLGYMNKSIPTTRKTRTFKAMSIEFSAPAKMKIEVWSDIMCPFCYIGKKRLDDALSTFDQAGRIEVEYKSFELMPGLETHPLRSDVEYLADAKGMSLEQARQMNGQVQAMAQATGLEMNPDETIAANTINAHRLTHFAKAHGKQQEVAQELFKAHFVDGKNVDDLDVLVSIAAEVGLDASAAREALESDVYTNEVQQDVHEARQLGVQGVPFFVFDRKYAINGAQQEEVFTGTVEKAFEEWAAENPVSPFEVIDGQSCSVDGTCN | not failed
